# Assay results from patent US20250382346A1, “NEURONAL PROMOTERS AND USES THEREOF” (priority 2023, published 2025).
# B1: AAV8R: AAV8 capsid with N385D, insertion of SEQ ID NO: 31 at position 588 and TS to IN mutation; Cap SEQ ID NO: 1 (protein)
# chain: MAADGYLPDWLEDNLSEGIREWWALKPGAPKPKANQQKQDDGRGLVLPGYKYLGPFNGLDKGEPVNAADAAALEHDKAYDQQLQAGDNPYLRYNHADAEFQERLQEDTSFGGNLGRAVFQAKKRVLEPLGLVEEGAKTAPGKKRPVEPSPQRSPDSSTGIGKKGQQPARKRLNFGQTGDSESVPDPQPLGEPPAAPSGVGPNTMAAGGGAPMADNNEGADGVGSSSGNWHCDSTWLGDRVITTSTRTWALPTYNNHLYKQISNGTSGGATNDNTYFGYSTPWGYFDFNRFHCHFSPRDWQRLINNNWGFRPKRLSFKLFNIQVKEVTQNEGTKTIANNLTSTIQVFTDSEYQLPYVLGSAHQGCLPPFPADVFMIPQYGYLTLNDGSQAVGRSSFYCLEYFPSQMLRTGNNFQFTYTFEDVPFHSSYAHSQSLDRLMNPLIDQYLYYLSRTQTTGGTANTQTLGFSQGGPNTMANQAKNWLPGPCYRQQRVSTTTGQNNNSNFAWTAGTKYHLNGRNSLANPGIAMATHKDDEERFFPSNGILIFGKQNAARDNADYSDVMLTSEEEIKTTNPVATEEYGIVADNLQRGNLADQDYTKTARQAATADVNSQGALPGMVWQNRDVYLQGPIWAKIPHTDGNFHPSPLMGGFGLKHPPPQILIKNTPVPADPPTTFNQSKLNSFITQYSTGQVSVEIEWELQKENSKRWNPEIQYTSNYYKSINVDFAVNTEGVYSEPRPIGTRYLTRNL
# B2: G88P3: 1395-bp shortened GPR88 promoter; SEQ ID NO: 45 (nucleic acid, listed as Homo sapiens)
# DNA: TCTAGATGTACCACTGACATCTGCTTTAAATCTTTTGCCCATTTCATTTTTACCCTCTAACCATTTCATTACTAAAACACAAAACAAACTCCGGAAAGGAGTTTGTTGATGAGAAAACACTGAAAGTACGATTTAAATTGAGGAATGGAGATTTTCTGTGGATAATTGTCTATGTTCCACTTTACCAAAGAAAAATGAATTTCAAGTAGTGCATAAAGTAATTCTCGTTAAAAAATGTGGGAATAAAGAGATCAGTCCTGGGTACTGGGAATATATTTATCTCACAGAAAAATCTTGCCCACAAAATGCATCAGACTGAGATGAAATACTCTAGGGTATATTAAATTTTATTCTAATATTGAAGGGAGGGAAAAAAAGGACGGAAAGAAAAATGAAACAGGATGAAAAATAAGGTGATTGGGAGAGAGAAAAGACAGAGAAACTTGTTAACGACAGGACTTTCTGAGCAAGATATTTTTCTTCCTTTTACAAGTTGGAAGCTATTGAATAATTCATGCCAAGCGTGGAAAGGCTGTCTTTTCCCTGGATGATGTATAACTAAGCAGGAGAGAGCTTCGAGTGGGTTCACCACATCAGCCACCACTCCTGCTTCTGAGCACAGGGTGCTCTCCTCTTGAGCTCAGCTTCTGCTTTTGCAGCCAAGCATTCTTGCTGCTGCTGCCTGCCTGCCCACCCGCCTGGGCTTGCAGCCCGCCACTTTACTTTCTCCAGCCCTGATACCAGCTGAGAAGTCTCCCTGCAGCTGCTAGTTCCTGCCCAGGACCATGTGTGTGGATGCTGCTTGGGAGAAGCGGGCACTTGCTCCTGGCACTGATCCCAGCTGAGTTTCTCCTGTTGATTTCTGGACCACTGATGCTGTTGCTGAGGAGGTATTTCCCGGCATCCCTCCCCCTGAGACACCGGCTAAGGACCAGCCTAAACGCAAGGTAACCTTCACCTCTTTCCCATGGGATTTTCCCCAGCTGGGATATCTCTGCTTTCTCCTGGAACTAGGTCCTCCAGCTGGCAACATATCTCTCTCTCTCTCTCTCTCTCTCTCTCTCTCTCTCTGTGTGTGTGTGTGTGTGTTGGGGGAGAAGAGGAGACTGTTTTAGGTATTGCTCTGTCCTAGGGCTTCCCCGATACCTGCTGAATCCAATGCAAAGTGGCCTTTCCCCTGGCTCTGGAGACATTTCCGAGGCAGGCACCTGTCATTTGCCACCCCCGTCCTCCTCCTCGAGCTCCCTTTCTCCCCCTCCCCCAGCCCATTATTCTGCTTCAGCCTTTTGTGTCAGTGGCAGAGGGCTGAAGGGATGTCTTTGCCCTTCTGGCAGGCAGGACAGTGTCAGGATGGACCGCGCTGCCAGAAGCCGACGCTAGCGAGGGAGGTGTGAA
# B3: G88P7: 896-bp shortened GPR88 promoter; SEQ ID NO: 46 (nucleic acid, listed as Homo sapiens)
# DNA: ATGCCAAGCGTGGAAAGGCTGTCTTTTCCCTGGATGATGTATAACTAAGCAGGAGAGAGCTTCGAGTGGGTTCACCACATCAGCCACCACTCCTGCTTCTGAGCACAGGGTGCTCTCCTCTTGAGCTCAGCTTCTGCTTTTGCAGCCAAGCATTCTTGCTGCTGCTGCCTGCCTGCCCACCCGCCTGGGCTTGCAGCCCGCCACTTTACTTTCTCCAGCCCTGATACCAGCTGAGAAGTCTCCCTGCAGCTGCTAGTTCCTGCCCAGGACCATGTGTGTGGATGCTGCTTGGGAGAAGCGGGCACTTGCTCCTGGCACTGATCCCAGCTGAGTTTCTCCTGTTGATTTCTGGACCACTGATGCTGTTGCTGAGGAGGTATTTCCCGGCATCCCTCCCCCTGAGACACCGGCTAAGGACCAGCCTAAACGCAAGGTAACCTTCACCTCTTTCCCATGGGATTTTCCCCAGCTGGGATATCTCTGCTTTCTCCTGGAACTAGGTCCTCCAGCTGGCAACATATCTCTCTCTCTCTCTCTCTCTCTCTCTCTCTCTCTCTCTCTGTGTGTGTGTGTGTGTGTTGGGGGAGAAGAGGAGACTGTTTTAGGTATTGCTCTGTCCTAGGGCTTCCCCGATACCTGCTGAATCCAATGCAAAGTGGCCTTTCCCCTGGCTCTGGAGACATTTCCGAGGCAGGCACCTGTCATCTGCCACCCCCGTCCTCCTCCTCGAGCTCCCTTTCTCCCCCTCCCCCAGCCCATTATTCTGCTTCAGCCTTTTGTGTCAGTGGCAGAGGGCTGAAGGGATGTCTTTGCCCTTCTGGCAGGCAGGACAGTGTCAGGATGGACCGCGCTGCCAGAAGCCGACGCTAGCGAGGGAGGTGTGAAGAGTTGGCCAG
# Legend:
# Assay type in all cases: in vivo, mice
# substantia nigra (SN) = experiment: Promoter screening: YFP-expressing neurons after injection of AAVs into the SNr, substantia nigra; settings: numbers of YFP-expressing neurons per animal
# Source text: (§1) To find promoters that offer high levels of expression in MSNs, gene expression databases were scanned to identify a list of eight genes that have highly enriched striatal expression compared to other parts of the basal ganglia (BG). Genes highly expressed in the striatum, but not other parts of the basal ganglia, were first selected as candidates.
# (§2) Brain profiles of two epigenetic marks for enhancers and promoters, monomethylation of histone H3 lysine 4 (H3K4me1) and acetylation of histone H3 lysine 27 (H3K27ac) were checked and approximately 2 kilobase-long sequences around the transcriptional start site (TSS) that have high levels of H3K4me1 and/or H3K27ac were identified in mouse brain. Homologous sequences at equivalent positions of the human genome were then cloned onto an AAV backbone, and the activity of the homologous sequences in directing reporter expression was tested in mice after injections of AAVs into the SNr (FIG. 3A-C, TABLE 3).
# (§3) G88P2 (2259 bp) was cloned with the following primers: 5′-[…] (SEQ ID NO.: 36) and 3-[…] (SEQ ID NO.: 37). To increase the payload of AAV genome, the G88P2 promoter was shorted using restriction enzymes, and two derivatives, G88P3 and G88P7, were made which were 1395-bp and 896-bp long, respectively (FIG. 3A-3C). Comparative efficiency in labeling MSNs for the two shortened promoters was observed. For mice that received viral injections into the SNr, viruses expressing EYFP driven by G88P3 and G88P7 promoters labeled 3.7±0.66×104 and 3.95±0.73×104 MSNs per mouse, respectively, compared to 1.61±0.16×104 labeled MSNs by hSyn promoter (FIG. 4B).
# (§4) Region-selective promoter identification was based on the Allen Brain Atlas in situ hybridization (ISH) data (mouse.brain-map.org/). Genes highly expressed in the striatum but not in other parts of the basal ganglia were first selected as candidates. H3K4me 1 and H3K27ac are known epigenetic marks for active promoters and enhancers. Thus, we identified regions with high levels of these two chromatin modification marks in mouse brain as candidate regions based on the ENCODE annotation data on the UCSC Genome Browser (genome.ucsc.edu/). To further extend the promoters' potential application in primates, the sequences of interest were PCR-amplified from human genomic DNA. Based on the above strategies, GPR88 was selected as a candidate gene. […]
# (§5) Images were acquired using a confocal microscope (Carl Zeiss, LSM880) and an Axiolmager. […] Every sixth section was analyzed, and numbers of EYFP+ cells were multiplied by six to acquire the approximate total number and mean number of cells per animal. Images were processed using ImageJ (NIH, USA), and final quantifications were independently performed manually by two blinded experimenters.
# striatum (STR) = experiment: Promoter screening: YFP-expressing neurons after injection of AAVs into the SNr, striatum; settings: numbers of YFP-expressing neurons per animal
# Source text: as §1, §2, §3, §4, §5
# [1] = system: striatonigral projection neurons (D1 MSNs); experiment: Retrograde labeling of striatal MSNs after AAV injection into the SNr, EYFP+ cell counting; settings: for labeled neurons, reporter expression in MSNs by promoter (FIG. 4B), mean±SEM: promoter comparison
# Procedure: To improve efficiency, multiple rounds of mutations of AAV capsids were performed on a series of different serotypes. Mutations were introduced at three sites in the AAV8 capsid protein to make AAV8R, including N385D, insertion of […] (SEQ ID NO: 31) at position 588, and TS711-7121N. Two additional mutations of V183E and N41 IS were incorporated into the AAV8R12 capsid protein (FIG. 1A). The labeling pattern of the AAV8R12 capsid and G88 promoter combination was determined.
# was inserted at the N587-R588 position; two other point mutations of the AAV2 Cap protein were made to develop rAAV2-retro. Similar mutations were then placed at equivalent positions for four other AAV serotypes (FIGS. 1A-1C and 25, TABLE 1), AAV1/5/6/8 (FIG. 1A). […] When administered into the SNr, 4.86±0.22 times EYFP positive MSNs in mice infected by AAV8R-hSyn-EYFP were observed as compared to those infected by rAAV2-retro-hSyn-EYFP (FIG. 2A-2C).
# Baseline infectivity of rAAV2-retro was approximately 0.2±0.03×10^4 cells per striatal hemisphere (using a hSyn promoter) (TABLE 2). […] Compared to the current standard retrograde AAV, rAAV2-retro, AAV8R12 labeled 7.72±0.78-times more MSNs after nigral delivery (FIG. 2B-2C, TABLE 1). […] The AAV8R12 was generated using the AAV8R plasmid as a template.
# Mice were anesthetized with sodium pentobarbital (Nembutal; 80 mg/kg, i.p.), and then placed into a stereotaxic device (KOPF). Eye cream was applied on both corneas to avoid dehydration. The skull above the targeted areas was thinned with a dental drill and carefully removed. Injections were conducted with a 10 μL syringe connected to a 33-Gauge needle (Neuros; Hamilton), using a microsyringe pump (Legato 130, KD Scientific). A total volume of 200 nL virus was injected into the SNr at a speed of 20 nL/min. The coordinates for the SNr were 3.4 mm posterior, 1.3 mm lateral, 4.8 mm ventral to the bregma.
# Images were acquired using a confocal microscope (Carl Zeiss, LSM880) and an Axiolmager. Z1 microscope with apotome (Carl Zeiss). Brain structures were identified microscopically and in digital photos using a mouse brain atlas. To analyze the number of EYFP+ cells in the striatum, slices from rostral to caudal striatum were used. Every sixth section was analyzed, and numbers of EYFP+ cells were multiplied by six to acquire the approximate total number and mean number of cells per animal. Images were processed using ImageJ (NIH, USA), and final quantifications were independently performed manually by two blinded experimenters.
# [2] = system: MSNs in nucleus accumbens; experiment: Retrograde labeling of accumbal MSNs after delivery into ventral pallidum or lateral hypothalamus; settings: stereotaxic delivery into ventral pallidum or lateral hypothalamus
Molecule,Activity Level SN (substantia nigra (SN)),Activity Level STR (striatum (STR)),"labeled neurons, reporter expression in MSNs by promoter (FIG. 4B), mean±SEM ([1]; n=3 mice per group)",labeling of MSNs in nucleus accumbens [2],"EYFP positive / labeled MSNs compared to rAAV2-retro ([1]; after nigral delivery, hSyn-EYFP) [times]","labeled striatonigral projection neurons (FIG. 2C), mean±SEM ([1]; capsid comparison, injection into SNr of wild type mice, n=3 mice per group)","Mean (AAVs with capsid and promoter) ([1]; labeled cells after nigral injection in mice, b188 refers to it as cells per striatal hemisphere, SD and SEM in own columns)"
"R9P1: promoter from gene RGS9, 2152 bp; SEQ ID NO: 47",+ (<5k),+++ (10k-25k),–,–,–,–,–
G88P2: 2259-bp promoter from the gene GPR88; SEQ ID NO: 44,+ (<5k),++++ (>25k),36290±3705,–,–,–,–
B1,–,–,–,robust labeling of MSNs,4.86±0.22,10092±463.9,10092
B2,+ (<5k),++++ (>25k),37026±6646,–,–,–,–
B3,+ (<5k),++++ (>25k),39460±7281,–,–,–,–
